Source: the supplement of paper PMC9170038

Key:
[1] = test system: MS2 coat protein; assay: apparent KD of MS2 coat protein, switch OFF state (with FMN for OFF switches, without FMN for ON switches); designed switch direction (-1 OFF switch, 1 ON switch): -1; higher = weaker reporter binding; settings: FMN input: 0 or 200 uM; Eterna round: R93 (includes R88 designs)
Outline: (§1)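 The buffer was 100 mM Tris-HCl pH 7.5 with 80 mM KCl and 4 mM MgCl2, used without or with constant ligand. In it, RNA switches transcribed on-chip from Illumina sequencing clusters were titrated with SNAP-549-labelled MS2 coat protein in twofold steps from 0.7 or 1.5 nM to 3 µM. Apparent KD for each design is the median of its normalised cluster binding-curve fits.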

[2] = test system: MS2 coat protein; assay: apparent KD of MS2 coat protein, switch ON state; designed switch direction (-1 OFF switch, 1 ON switch): -1; higher = weaker reporter binding; settings: FMN input: 0 or 200 uM; Eterna round: R93 (includes R88 designs)
Outline: as §1

| Sequence | apparent KD of MS2 coat protein [1] [µM] | apparent KD of MS2 coat protein [2] [µM] |
| --- | --- | --- |
| AAAAAUCGAGGAUAUACAUGAGGAUCACCCAUGUCAGAAAAUGACUACACAAAAGAAAGUAGAAGGCGAUAAAA [Ex 3 May 18] | 0.0303 | 0.0294 |
| AAAAAUGGAGGAUAUACAUGAGGAUCACCCAUGUGUAACUAAACAAAACACAAAAAAAGUAGAAGGCCAAAAAA [Gilly Gone Silly 6 - Jieux - Exclusion 3] | 0.0171 | 0.0145 |
| AAAAAUGGAGGAUAUACAUGAGGAUCACCCAUGUGUAACUAUACUAAGCACACCUCACGUAGAAGGCCAAAAAA [Gilly Gone Silly 12 - Jieux - Exclusion 3] | 0.321 | 0.105 |
| AAAAAUGGAGGAUAUACAUGAGGAUCACCCAUGUGUGGCCAUACUAUGUGGGCGUCAGGUAGAAGGCCAAAAAA [Gilly Gone Silly 24 - Jieux - Exclusion 3] | 0.056 | 0.0223 |
| AAAAAUGGAGGAUAUACGAACAUGUCAAAAGACGUGAAGGGACAUGAGGAUCACCCAUGUAGAAGGCUAAAAAA [JL Stem Breaker 3] | 0.0403 | 0.0871 |
| AAAACGGCAGGAUAUACAGAAGAGAUCACGAAAAAAAAAAAACAUGAGGAUCACCCAUGUAGAAGGGCCAAAAA [Ex2 Malc#4] | 0.0663 | 0.117 |
| AAAACGGUAGGAUAUACAAUUGAGAACUAGAUCGAAAAAAAACAUGAGGAUCACCCAUGUAGAAGGGCCAAAAA [Ex2 Malc#10] | 0.0236 | 0.0382 |
| AAAAGGAUAGGAUAUACAUGAGGAUCACCCAUGUGAAAAAAUAAAAAAAAAAAAAAAAGUAGAAGGGUCAAAAA [LROPPY Exclusion 3 - v05_deltaG=3.6] | 0.0537 | 0.0402 |
| AAAAGGUGAGGAUAUUCGAAAAUAAAAUAAAAUAAAAUAAAGAAGAAGGCACAUGAGGAUCACCCAUGUAAUAA [LROPPY Exclusion 4 - v02_deltaG=2.94 break up the As] | 0.0249 | 0.0259 |
| AAAAUACGAGGAUAUACAUGAGGAUCACCCAUGUCAAAAAAUGACUACACAAAAGAAAGUAGAAGGCGUAAAAA [Ex 3 May 16] | 0.0304 | 0.0253 |
| AAAAUGUGAGGAUAUCCGAAGGCGUCUGAUAGACGAGGCUAGGAGAAGGCACAUGAGGAUCACCCAUGUAAAAA [Banishment 11 - Jieux - Exclusion 4] | 0.137 | 0.0788 |
| AAAAUGUUAGGAUAUGUGAAGGCGUCUGAUAGACGAGGCCUGCAGAAGGGACAUGAGGAUCACCCAUGUAAAAA [Mod 1 of Nando's Round 1 Power Srip] | 0.0247 | 0.0539 |
| AAACAACAUGAGGAUCACCCAUGUUAGGAUAUGAACGAAAAUAAAUAAAAAUAAAAGUUCAGAAGGGACAAAAA [66%, Wbt, 20] | 0.0282 | 0.023 |
| AAAGAUACAGGAUAUACAUGAGGAUCACCCAUGUGGAAUCUAAAAUGGGAAAAAGAAAGUAGAAGGGUAUAAAA [Ex 3 May 39] | 0.0635 | 0.034 |
| AAAGGACGAGGAUAUACAUGAGGAUCACCCAUGUAAAAAACGUAAUAAAAGAACUUAUGUAGAAGGCGUCCAAA [69%, Moding Meechl, 7] | 0.221 | 0.0609 |
| AAAGGUACAGGAUAUGCGUGGAAAAAGUGUAUUCAAAAAAAACAUGAGGAUCACCCAUGUAGAAGGGUACCAAA [MS2 Riboswitches On Chip Exclusion 2 wbt1] | 0.253 | 0.0697 |
| AAAGUACAUGAGGAUCACCCAUGUCAGGAUAUCGUGGCGGGAAAAACCGGGAAACGCACGAGAAGGGACAAAAA [EX1 Malc#18 Mod 13 - Jieux - Exclusion 1] | 0.042 | 0.0362 |
| AAAUAGACAGGAUAUGCAUGAAAAUUAAAAAAAAAAAAAAAACAUGAGGAUCACCCAUGUAGAAGGGUCAAAAA [Exclusion 2 - Omei 1] | 0.0758 | 0.0666 |
| AAAUAGCAAGGAUAUACAUGAGGAUCACCCAUGUGAACCAGGUAUGGAAUAGAAUAGAGUAGAAGGUGCAAAUA [Mod 3 of Ex 3 Tesla 8 - Jieux - Exclusion 3] | 0.0378 | 0.0302 |
| AAAUAGUUAGGAUAUACAUGAGGAUCACCCAUGUGGACUUAUGGAGAAUAGUUUAAUGGUAGAAGGGACUAAAA [EX2 Malc#25] | 0.0365 | 0.0528 |
| AACAAACAUGAGGAUCACCCAUGUGAGGAUAUCGAAACAACAAACAACAAACAACAAACGAGAAGGCGCAACAA [e1-2] | 0.0173 | 0.0188 |
| AACAAGACAGGAUAUACAUGAGGAUCACCCAUGUCACAAUAAAGCAGCGCAACACAAAGUAGAAGGGUCAUGGA [Ruby 10] | 0.0592 | 0.0738 |
